Among the data in the supplement of paper PMC10724198 are protein stability index values, retold here.

± gives the standard deviation of the averaged measurements.

In this data set the test system is Saccharomyces cerevisiae. The data set is described as follows: protein stability index of tFT-peptide fusion (C-terminal peptide) (PSI (0-1 scale)); higher = more stable (slower turnover). Particulars: temperature: 30 C. The method, then: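 MPS profiling in S. cerevisiae of the yeast C-terminome library: the last 12 aa of each annotated ORF are fused to the C-terminus of a sfGFP-mCherry timer, after a GGGS linker. Cells are FACS-sorted into 8 mCherry/sfGFP bins and deep-sequenced. PSI runs from 0 (unstable) to 1 (stable); wild type and das1Δ backgrounds, two technical replicates each.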

The mark [1] stands for this setting: genetic background: das1 deletion.

Turning to HEYVTINGDYRS [ARG7 C-terminal 12 aa], the protein stability index reads like this: under setting [1], 0.679 ± 0.017; (genetic background: wild type) 0.702 ± 0.032.

Take HFASSLVSFLSK [ICT1 C-terminal 12 aa]: the protein stability index is 0.727 ± 0.028 under setting [1] and 0.7183 ± 0.0037 (genetic background: wild type).

Consider HIDIPDFAKWDI [SUL2 C-terminal 12 aa], for which the protein stability index is, setting by setting: under setting [1], 0.727 ± 0.013; (genetic background: wild type) 0.719 ± 0.009.

In the case of HLYSTLLFHSVN [RRG8 C-terminal 12 aa], the protein stability index under setting [1] is 0.728 ± 0.013 and the protein stability index (genetic background: wild type) turned out to be 0.543 ± 0.033.

For HNDNSGTVLGTA [RBD2 C-terminal 12 aa], the protein stability index amounted to 0.7 ± 0.017 under setting [1] and 0.728 ± 0.032 (genetic background: wild type).

For the sequence HNGKNKNRNSKK [MPP6 C-terminal 12 aa], the protein stability index is, setting by setting: under setting [1], 0.691 ± 0.03; (genetic background: wild type) 0.669 ± 0.016.

HPFLLWQGQVFF [YCR022C C-terminal 12 aa]: the protein stability index by setting is: under setting [1], 0.729 ± 0.012; (genetic background: wild type) 0.6995 ± 0.0021.

Turning to HQDSAKYTHYYL [YER158C C-terminal 12 aa], the protein stability index reads like this: under setting [1], 0.696 ± 0.016; (genetic background: wild type) 0.652 ± 0.0081.

For the sequence HTMENIFAGKLD [CUE4 C-terminal 12 aa], the protein stability index came to 0.7177 ± 0.0019 under setting [1] and 0.69 ± 0.011 (genetic background: wild type).

For IAKRFAKALGRS [ARN2 C-terminal 12 aa], the protein stability index under setting [1] is 0.711 ± 0.0084 and the protein stability index (genetic background: wild type) amounted to 0.695 ± 0.016.

With IAQNVSRSSQQV [YMD8 C-terminal 12 aa], the protein stability index is, setting by setting: under setting [1], 0.6875 ± 0.00089; (genetic background: wild type) 0.731 ± 0.016.

In the case of ICKALVKQDLGL [LAP2 C-terminal 12 aa], the protein stability index by setting is: under setting [1], 0.6972 ± 0.002; (genetic background: wild type) 0.657 ± 0.035.

Regarding IDIPISVRQVTK [BUL1 C-terminal 12 aa], the protein stability index reads like this: under setting [1], 0.707 ± 0.0073; (genetic background: wild type) 0.696 ± 0.013.

In turn, IDKFLDHIGKSQ [FBP1 C-terminal 12 aa] registered a protein stability index under setting [1] of 0.698 ± 0.025 and a protein stability index (genetic background: wild type) of 0.703 ± 0.012.

In turn, IDSIDDLVDSDT [NPP1 C-terminal 12 aa] displayed a protein stability index under setting [1] of 0.6907 ± 0.0066 and a protein stability index (genetic background: wild type) of 0.685 ± 0.015.

In the case of IEALYKLVEEKM [NQM1 C-terminal 12 aa], the protein stability index reads like this: under setting [1], 0.701 ± 0.017; (genetic background: wild type) 0.6797 ± 0.0027.

For the sequence IEKSKSDRRKLL [YHR022C C-terminal 12 aa], the protein stability index reads like this: under setting [1], 0.728 ± 0.063; (genetic background: wild type) 0.2695 ± 0.0021.

With IELQLTEIPKHK [FIN1 C-terminal 12 aa], the protein stability index amounted to 0.701 ± 0.022 under setting [1] and 0.727 ± 0.085 (genetic background: wild type).

Turning to IGELLEGIRMSI [BIT2 C-terminal 12 aa], the protein stability index reads like this: under setting [1], 0.694 ± 0.012; (genetic background: wild type) 0.729 ± 0.091.

In the case of IGPLAFLVFKTA [DYN2 C-terminal 12 aa], the protein stability index stood at 0.67 ± 0.02 under setting [1] and 0.18 ± 0.011 (genetic background: wild type).

IHENEESNENEG [RQC1 C-terminal 12 aa]: the protein stability index is 0.702 ± 0.0099 under setting [1] and 0.663 ± 0.011 (genetic background: wild type).

With IHYLLHIERERK [YOR385W C-terminal 12 aa], the protein stability index by setting is: under setting [1], 0.683 ± 0.037; (genetic background: wild type) 0.681 ± 0.014.

Regarding IIRSEKKKKEEQ [YBR292C C-terminal 12 aa], the protein stability index by setting is: under setting [1], 0.748 ± 0.041; (genetic background: wild type) 0.659 ± 0.039.

Regarding IKETIQRLTDDR [GMC2 C-terminal 12 aa], the protein stability index was found to be 0.661 ± 0.018 under setting [1] and 0.676 ± 0.015 (genetic background: wild type).

With “IKIRIYSPRSIS [YDL240C-A C-terminal 12 aa]”, the protein stability index by setting is: under setting [1], 0.715 ± 0.017; (genetic background: wild type) 0.519 ± 0.021.

For the sequence IKKYNITSPFLD [NSE4 C-terminal 12 aa], the protein stability index reads like this: under setting [1], 0.696 ± 0.022; (genetic background: wild type) 0.686 ± 0.004.

As for IKRRSNVGVVML [NMT1 C-terminal 12 aa], the protein stability index by setting is: under setting [1], 0.6647 ± 0.003; (genetic background: wild type) 0.6363 ± 0.0032.

As to IKSVHVDLSLDK [ALD3 C-terminal 12 aa], the protein stability index runs as follows: under setting [1], 0.717 ± 0.022; (genetic background: wild type) 0.704 ± 0.043.

ILHERNIPLEKI [TPT1 C-terminal 12 aa]: the protein stability index runs as follows: under setting [1], 0.709 ± 0.021; (genetic background: wild type) 0.701 ± 0.048.

ILIRKKLKAENI [OPY1 C-terminal 12 aa]: the protein stability index is, setting by setting: under setting [1], 0.677 ± 0.021; (genetic background: wild type) 0.646 ± 0.053.

As to ILLHLEYAAAYS [STN1 C-terminal 12 aa], the protein stability index reads like this: under setting [1], 0.521 ± 0.033; (genetic background: wild type) 0.552 ± 0.02.

As to INILPVRKKKKV [SAS4 C-terminal 12 aa], the protein stability index turned out to be 0.705 ± 0.024 under setting [1] and 0.685 ± 0.036 (genetic background: wild type).

As to INKASVKFFFFA [YJL119C C-terminal 12 aa], the protein stability index is 0.637 ± 0.0095 under setting [1] and 0.227 ± 0.0039 (genetic background: wild type).

Take INNTDITLYNDV [YPL068C C-terminal 12 aa]: the protein stability index came out at 0.707 ± 0.019 under setting [1] and 0.696 ± 0.056 (genetic background: wild type).

As for IQELVNTIRELQ [YPL077C C-terminal 12 aa], the protein stability index is, setting by setting: under setting [1], 0.69 ± 0.018; (genetic background: wild type) 0.642 ± 0.0078.

Regarding IQISDVSMSPSL [PEX31 C-terminal 12 aa], the protein stability index was 0.6811 ± 0.00011 under setting [1] and 0.717 ± 0.019 (genetic background: wild type).

On to IQKDSMVHPGKK [VAC7 C-terminal 12 aa], for which the protein stability index is, setting by setting: under setting [1], 0.6694 ± 0.0052; (genetic background: wild type) 0.663 ± 0.034.

With IQQTNSFLREII [YDL211C C-terminal 12 aa], the protein stability index was 0.692 ± 0.0098 under setting [1] and 0.7056 ± 0.0041 (genetic background: wild type).

On to IRLLTYLLRKIE [YLR230W C-terminal 12 aa], for which the protein stability index stood at 0.654 ± 0.033 under setting [1] and 0.351 ± 0.023 (genetic background: wild type).

As to ISFDLCGKQNFQ [MTC7 C-terminal 12 aa], the protein stability index came to 0.705 ± 0.056 under setting [1] and 0.719 ± 0.044 (genetic background: wild type).

As to ISIALEGHTLFL [PDE1 C-terminal 12 aa], the protein stability index was found to be 0.715 ± 0.02 under setting [1] and 0.70608 ± 0.00038 (genetic background: wild type).

With ISIEELAQYLKK [RIB3 C-terminal 12 aa], the protein stability index is, setting by setting: under setting [1], 0.70628 ± 0.00065; (genetic background: wild type) 0.672 ± 0.049.

Take ISKLKGISKPSP [MDS3 C-terminal 12 aa]: the protein stability index runs as follows: under setting [1], 0.682 ± 0.014; (genetic background: wild type) 0.687 ± 0.023.

Take ISNLPECLGNLC [ANR2 C-terminal 12 aa]: the protein stability index is, setting by setting: under setting [1], 0.6968 ± 0.0047; (genetic background: wild type) 0.6926 ± 0.006.

Take ITKSSNKFVNNV [YNL043C C-terminal 12 aa]: the protein stability index was 0.665 ± 0.022 under setting [1] and 0.736 ± 0.091 (genetic background: wild type).

Consider ITLESGSYKFQD [SRP40 C-terminal 12 aa], for which the protein stability index by setting is: under setting [1], 0.695 ± 0.025; (genetic background: wild type) 0.639 ± 0.0026.

Consider ITSKRKAELLLK [DIS3 C-terminal 12 aa], for which the protein stability index was found to be 0.723 ± 0.062 under setting [1] and 0.7544 ± 0.007 (genetic background: wild type).

IVRPLELKYFGR [FCY22 C-terminal 12 aa]: the protein stability index is 0.7236 ± 0.0033 under setting [1] and 0.688 ± 0.04 (genetic background: wild type).

Turning to IWVVDSLGSLVG [YPL142C C-terminal 12 aa], the protein stability index by setting is: under setting [1], 0.6847 ± 0.00084; (genetic background: wild type) 0.699 ± 0.037.

Take IYIQTPINDFKS [SLM1 C-terminal 12 aa]: the protein stability index is 0.705 ± 0.031 under setting [1] and 0.678 ± 0.013 (genetic background: wild type).
